According to publication PMC11324726, “Structural dynamics of protein-protein association involved in the light-induced transition of Avena sativa LOV2 protein” (Nature Communications, 2024):

Tests used:
[1] = biological target: the molecule itself; test: time-resolved X-ray liquidography (TRXL, TR-SAXS/WAXS); in solution; ns laser pump at 450 nm, X-ray probe; 1.5 mM protein in 20 mM Tris pH 7.0, 200 mM NaCl, 293 K; monomers (I2) to dimer (P); kinetic analysis by SVD and KCA, structural analysis aided by MD
[2] = biological target: the molecule itself; test: SEC; light state; monomer and dimer fractions by elution volume; conditions in Supplementary Note 3 and Supplementary Methods (not shown)

Row | Protein | stoichiometry N [1] | stoichiometry N [2]
1 | AsLOV2 (residue 404-546) I427V mutant (domain or fragment, Avena sativa, UniProt O49003 404-546, looked up, Avena sativa phototropin 1, residues 404-546, with I427V (faster photocycle); Carries FMN; Cys-FMN photoadduct in the light state; also called AsLOV2 I427V) LATTLERIEKNFVITDPRLPDNPVIFASDSFLQLTEYSREEILGRNCRFLQGPETDRATVRKIRDAIDNQTEVTVQLINYTKSGKKFWNLFHLQPMRDQKGDVQYFIGVQLDGTEHVRDAAEREGVMLIKKTAENIDEAAKEL | 2 | 
2 | Avena sativa phototropin 1 LOV2 domain with A'α and Jα helices (residue 404-546), wild type (domain or fragment, UniProt O49003 404-546, looked up, Avena sativa phototropin 1 (AsPhot1), A'α helix (404-412) + LOV2 core (413-520) + Jα helix (521-546), residues 404-546; Carries FMN as chromophore; in the light state a Cys-FMN photoadduct is formed; also called AsLOV2; AsLOV2 WT) LATTLERIEKNFVITDPRLPDNPIIFASDSFLQLTEYSREEILGRNCRFLQGPETDRATVRKIRDAIDNQTEVTVQLINYTKSGKKFWNLFHLQPMRDQKGDVQYFIGVQLDGTEHVRDAAEREGVMLIKKTAENIDEAAKEL |  | 2
